Measurements from patent US20100135997A1 (MEDGENE, published 2010).
Numbering of substitutions follows the chain as printed.

B1: SEQ ID NO 104 (receptor)
chain: MGHLPKPTLWAEPGSVITLGQPVTLRCQGGQETQEYRLYREKKTAPWITRIPQELVKKGQFPIPSITWEHAGRYRCYYGSDTAGRSESSDPLELVVTGIYLAPTLSAQPSPVVNSGGNVTLQCDSQVAFDGFILCKEGEDEHPQCLNSQPHARGSSRAIFSVGPVSPSRRWWYRCYAYDSNSPYEWSLPSDLLELLVL
notes: mutated soluble two domain ILT-2
B2: SEQ ID NO 105 (receptor)
chain: B1 chain with L19M, G20D, A83S, G84Q, R85W, E87A
notes: as for B1
B3: SEQ ID NO 106 (receptor)
chain: B1 chain with A83S, G84Q, R85W, E87A
notes: as for B1
B4: SEQ ID NO 19 (receptor)
chain: MAGHLPKPTLWAEPGSVITMDQPVTLRCQGGQETQEYRLYREKKTAPWITRIPQELVKKGQFPIPSITWEHAGRYRCYYGSDTSQWSASSDPLELVVTGVYIKPTLSAQPSPVVNSGGNVTLQCDSQVAFDGFILCKEGEDEHPQCLNSQPHARGSSRAIFSVGPVSPSRRWWYRCYAYMSWSPYEWSLPSDLLELDVDG
notes: mutated soluble two domain ILT-2; also called clone 83; Clone c83
B5: SEQ ID NO 7 (receptor)
chain: B4 chain with M180P, S181I, S183T
notes: as for B1
B6: SEQ ID NO 8 (receptor)
chain: B4 chain with M180V, S181A, S183A
notes: as for B1
B7: SEQ ID NO 9 (receptor)
chain: B4 chain with S181N, S183A
notes: as for B1
B8: SEQ ID NO 10 (receptor)
chain: B4 chain with M180T, S181D, W182Y
notes: as for B1
B9: SEQ ID NO 11 (receptor)
chain: B4 chain with M180V, S181D, S183F
notes: as for B1
B10: SEQ ID NO 12 (receptor)
chain: B4 chain with M180V, W182Y, S183W
notes: as for B1
B11: SEQ ID NO 13 (receptor)
chain: B4 chain with M180P, S181A, S183T
notes: as for B1
B12: SEQ ID NO 14 (receptor)
chain: B4 chain with G3Q, A129D, M180D, W182N
notes: as for B1
B13: SEQ ID NO 15 (receptor)
chain: B4 chain with G3Q, A129S, M180D, W182N
notes: as for B1
B14: SEQ ID NO 16 (receptor)
chain: B4 chain with G3Q, A129T, M180D, W182N
notes: as for B1
B15: SEQ ID NO 17 (receptor)
chain: B4 chain with G3Q, F130Y, M180D, W182N
notes: as for B1
B16: SEQ ID NO 18 (receptor)
chain: B4 chain with S183A
notes: as for B1
B17: SEQ ID NO 20 (receptor)
chain: B4 chain with M180P, S181D, W182F, S183T
notes: as for B1
B18: SEQ ID NO 21 (receptor)
chain: B4 chain with M180P, S181W, W182F, S183T
notes: as for B1
B19: SEQ ID NO 22 (receptor)
chain: B4 chain with M180G, S181R, S183L
notes: as for B1
B20: SEQ ID NO 23 (receptor)
chain: B4 chain with M180V, S181E, S183L
notes: as for B1
B21: SEQ ID NO 30 (receptor)
chain: B4 chain with M20Q, D21G, Q22S, M180P, S181I, S183T
notes: as for B1
B22: SEQ ID NO 32 (receptor)
chain: B4 chain with M20Q, D21G, Q22S, M180V, S181A, S183A
notes: as for B1
B23: SEQ ID NO 34 (receptor)
chain: B4 chain with M20Q, D21G, Q22S, S181N, S183A
notes: as for B1
B24: SEQ ID NO 36 (receptor)
chain: B4 chain with M20Q, D21G, Q22S, M180P, S181A, S183T
notes: as for B1
B25: SEQ ID NO 38 (receptor)
chain: B4 chain with M20Q, D21G, Q22S, S183A
notes: as for B1
B26: SEQ ID NO 40 (receptor)
chain: B4 chain with M20Q, D21G, Q22S
notes: as for B1
B27: SEQ ID NO 43 (receptor)
chain: B4 chain with W182Y
notes: as for B1
B28: SEQ ID NO 44 (receptor)
chain: B4 chain with M180P, S181A, W182Y, S183T
notes: as for B1
B29: SEQ ID NO 45 (receptor)
chain: B4 chain with W182N
notes: as for B1
B30: SEQ ID NO 46 (receptor)
chain: B4 chain with M180D
notes: as for B1
B31: SEQ ID NO 47 (receptor)
chain: B4 chain with W182N, S183A
notes: as for B1
B32: SEQ ID NO 48 (receptor)
chain: B4 chain with M180D, S183A
notes: as for B1
B33: SEQ ID NO 51 (receptor)
chain: B4 chain with M180P, S181I, S183T, P190G
notes: as for B1
B34: SEQ ID NO 52 (receptor)
chain: B4 chain with M180P, S181I, S183T, L189Q, P190M
notes: as for B1
B35: SEQ ID NO 53 (receptor)
chain: B4 chain with M180P, S181I, S183T, S188T, L189R, P190G
notes: as for B1
B36: SEQ ID NO 54 (receptor)
chain: B4 chain with M180P, S181I, S183T, L189T, P190S
notes: as for B1
B37: SEQ ID NO 55 (receptor)
chain: B4 chain with M180P, S181I, S183T, L189S, P190G
notes: as for B1
B38: SEQ ID NO 56 (receptor)
chain: B4 chain with M180P, S181I, S183T, S188T, P190G
notes: as for B1
B39: SEQ ID NO 57 (receptor)
chain: B4 chain with M180D, W182N, S188T, L189R, P190G
notes: as for B1
B40: SEQ ID NO 58 (receptor)
chain: B4 chain with M180D, W182N, L189Q, P190M
notes: as for B1
B41: SEQ ID NO 59 (receptor)
chain: B4 chain with M180D, W182N, L189S, P190G
notes: as for B1
B42: SEQ ID NO 135 (receptor)
chain: MGHLPKPTLWAEPGSVITMDQPVTLRCQGGQETQEYRLYREKKTAPWITRIPQELVKKGQFPIPSITWEHAGRYRCYYGSDTSQWSASSDPLELVVTGVYIKPTLSAQPSPVVNSGGNVTLQCDSPFIADGFILCKEGEDEHPQCLNSQPHARGSSRAIFSVGPVSPSRRWWYRCYAYMSWSPYEWSLPSDLLELDVDG
notes: as for B1
B43: SEQ ID NO 31 (receptor)
chain: MGHLPKPTLWAEPGSVITMDQPVTLRCQGGQETQEYRLYREKKTAPWITRIPQELVKKGQFPIPSITWEHAGRYRCYYGSDTAGRSESSDPLELVVTGVYIKPTLSAQPSPVVNSGGNVTLQCDSQVAFDGFILCKEGEDEHPQCLNSQPHARGSSRAIFSVGPVSPSRRWWYRCYAYPIWTPYEWSLPSDLLELDVDG
notes: as for B1
B44: SEQ ID NO 33 (receptor)
chain: B43 chain with P179V, I180A, T182A
notes: as for B1
B45: SEQ ID NO 35 (receptor)
chain: B43 chain with P179M, I180N, T182A
notes: as for B1
B46: SEQ ID NO 37 (receptor)
chain: B43 chain with I180A
notes: as for B1
B47: SEQ ID NO 39 (receptor)
chain: B43 chain with P179M, I180S, T182A
notes: as for B1
B48: SEQ ID NO 41 (receptor)
chain: B43 chain with P179M, I180S, T182S
notes: as for B1
B49: SEQ ID NO 123 (receptor)
chain: B42 chain with E35Q, S83R, P126Q, F127V, I128A, A129F, E141D, W172R, M179D, W181N
notes: mutated soluble two domain ILT-2; also called Clone 64; c64

Target: T1, HLA-A*0201 loaded with the Carcinoembryonic antigen (CEA)-derived … peptide (biotin on the C-terminal biotinylation tag)
T1 construct: Soluble, biotinylated, immobilised on a streptavidin chip
Assay: Biacore SPR
How it was run: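 pMHC complexes were immobilised in SPR flow cells through biotin-tag binding. Soluble ILT-like molecule was passed over the surfaces at constant flow rate and response recorded in RU for affinity and kinetic analysis.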

Binder | Kd [nM] | koff [s⁻¹]
B1 | ≤ 1000 | ≤ 2
B2 | ≤ 1000 | ≤ 2
B3 | ≤ 1000 | ≤ 2
B4 | ≤ 1000 | ≤ 2
B5 | ≤ 1000 | ≤ 2
B6 | ≤ 1000 | ≤ 2
B7 | ≤ 1000 | ≤ 2
B8 | ≤ 1000 | ≤ 2
B9 | ≤ 1000 | ≤ 2
B10 | ≤ 1000 | ≤ 2
B11 | ≤ 1000 | ≤ 2
B12 | ≤ 1000 | ≤ 2
B13 | ≤ 1000 | ≤ 2
B14 | ≤ 1000 | ≤ 2
B15 | ≤ 1000 | ≤ 2
B16 | ≤ 1000 | ≤ 2
B17 | ≤ 1000 | ≤ 2
B18 | ≤ 1000 | ≤ 2
B19 | ≤ 1000 | ≤ 2
B20 | ≤ 1000 | ≤ 2
B21 | ≤ 1000 | ≤ 2
B22 | ≤ 1000 | ≤ 2
B23 | ≤ 1000 | ≤ 2
B24 | ≤ 1000 | ≤ 2
B25 | ≤ 1000 | ≤ 2

Binder | Kd [nM] | koff [s⁻¹]
B26 | ≤ 1000 | ≤ 2
B27 | ≤ 1000 | ≤ 2
B28 | ≤ 1000 | ≤ 2
B29 | ≤ 1000 | ≤ 2
B30 | ≤ 1000 | ≤ 2
B31 | ≤ 1000 | ≤ 2
B32 | ≤ 1000 | ≤ 2
B33 | ≤ 1000 | ≤ 2
B34 | ≤ 1000 | ≤ 2
B35 | ≤ 1000 | ≤ 2
B36 | ≤ 1000 | ≤ 2
B37 | ≤ 1000 | ≤ 2
B38 | ≤ 1000 | ≤ 2
B39 | ≤ 1000 | ≤ 2
B40 | ≤ 1000 | ≤ 2
B41 | ≤ 1000 | ≤ 2
B42 | ≤ 1000 | ≤ 2
B43 | ≤ 1000 | ≤ 2
B44 | ≤ 1000 | ≤ 2
B45 | ≤ 1000 | ≤ 2
B46 | ≤ 1000 | ≤ 2
B47 | ≤ 1000 | ≤ 2
B48 | ≤ 1000 | ≤ 2
B49 | ≤ 1000 | ≤ 2
